This data set in a line: label from the status in PepcDB records.

As for “MAKSWCTVLERPATRAARSLAIKRSEKGEMLVSGLPYLSAVDDVTLMLRDGDLMGSFVVEGINAETVDSFHTVELCNAFSRFIAQQRSDVAYYVHRISVETRPTMPPVGGHPFNEEIDRRWQGYLQTVGLRDRVTVVTLVIRPPRKTTKFLSLFGGRDVHSRHEVEARALRLDQMINTCMVGVGEAGPSRLTVSDGRWLGLLRTLIDGSGGSLIPGTKFLPVADLLASSQITFQGPVFECEGTDPARRRFGTIVSVKDYPAETYPGILDRLNLPYNTVVTQSFTPIDPISAQGKIARVRKQMRAAEDAAISLMAQLEEAEDDVASGRVIFGDHHCSVAVFCDSLKELDGAMAYVTRAMQDAGAAIVRENFSSRVVYFAQHPGNFAYRTRPAMISSQNFAQLCAMHGQSKGSPPDKCPWGDAVTIFPTARGETFRFNFHLPGKPGQRTVGHTLVLGQTGSGKTLGTAFLISQAQRLGARTILFDKDNGFEMAVRAMGGCYSAVRMGDETGFNPMRAEADSRGAAWLMDWLAALAENDGGKLNPVQIQALSDAVQANTTADPRLQNLEQFRSQLRATDDDGDLYNRLGRWDETGQFGWLFGGKGLDPLAFDNRLTAFDLTEIFDNDVVRTAWLSYVFRRVERLVEDEHPTLLVLDEAWKLLDNPYFEARLKDWMLTMRKKNVAVVLLTQRVSHIKNSAAGDAILESAVTRLVYTSSFNTAAELAPLHLTPTESAFLQMSNVDNHLVLLKSGSDSVVLDFDLVAIGKGIDVLGGGRGQKAIAGWRDRPDFQMEMLHLEHHHHHH”, the protein production entry is given as “failed”. As for “MAKVVKLEPISRETTVNTNDNLLSALLDSELHVLKECGGRGMCATCHVYIKEGMESLSPINKREQRTLEVITTANATSRLACQARVLGPGVVVELPSG”, the protein production result is listed as “failed”. The value for “MALAFDEFGRPFIILREQDQKTRLKGIDAQKANISAGKAVARILRSSLGPKGMEKKCFKDLTEMSPYVSFFLLNLISLRSIPMALALNSGLQPIETLSAVKSQQIKRRTFHSTGLIATM” was “failed”. For the sequence “MALCGRPARQRSSAGQRYLAVAPARCDHWSPPSVRRVPVGRVGFYPAPVINRDAGGRASMTSQRGFWDRMAERYAARPIKDVAAYEAMLADAAGRLSPSDRVLEIGCGTGGTAIRLAPGVAQWTATDLSPEMVRIASAKPAPPNLSFVVADADLSTGEPPYDAVCAFLILHLVDDIRTTLSAIRDWLKPGGLLLSKTYCIGDMNPALRWGVIPVLQRIGWVPPIKSLMSQQLRAAIAEAGFEIEASRTFGSNSHAHYIVARKPA”, the protein production entry is listed as “failed”. The same measure for “MALDNAKTSQKLQSLAELDGKAPSHRNLNVQTWSTAEGAKVLFVEARELPMFDLRLIFAAGSSQDGNAPGVALLTNAMLNEGVAGKDVGAIAQGFEGLGADFGNGAYKDMAVASLRSLSAVDKREPALKLFAEVVGKPTFPADSLARIKNQMLAGFEYQKQNPGKLASLELMKRLYGTHPYAHASDGDAKSIPPITLAQLKAFHAKAYAAGNVVIALVGDLSRSDAEAIAAQVSAALPKGPALAKIEQPAEPKASIGHIEFPSSQTSLMLAQLGIDRDDPDYAAVSLGNQILGGGGFGTRLMSEVREKRGLTYGVYSGFTPMQARGPFMINLQTRAEMSEGTLKLVQDVFAEYLKNGPTQKELDDAKRELAGSFPLSTASNADIVGQLGAMGFYNLPLSYLEDFMRQSQELTVEQVKAAMNKHLNVDKMVIVSAGPTVAQKPLEHHHHHH”: “failed”; for “MALDRIEAMRAFCRIVELGSFTRAADSLGVASTTLSGQIQVLERLLDIRLLHRSTRKVHPTNEGLAYYQRARKVIEDIDDLEASVSISRAVVKGRVAVEMPTPVGIHLVIPALHGFTERYPHIHLDIGCSERVVGLMQEGIDCAIRGGDIADQDLIARRVGQMRFCLCAAPAYLDAHPAITHPAQLARHRHLGFRFPGTGKRFVATLRKQRDSHPLDHPPHVYFNNGTAVTAGAAAGLGIAALPRAEVRHLLEAGALREILPDWTLTSMPMSVVYPQTHQLSARVQVFVQWVAELFEGDGLWKDA”: “failed”. The same measure for “MALGHRCRRFGTDKITSRPLRRQPQENPMNIKQLITAALIASAAFATQAAPQKPVSAAQTAQHSAVWIDVRSEQEFSEGHLHNAVNIPVDQIVRRIYEAAPDKDTPVNLYCRSGRRAEAALQELKKAGYTNVANHGGYEDLLKKGMK”: “failed”. The same measure for “MALIVQKFGGTSVGTVERIEQVAEKVKKFREAGDDVVVVVSAMSGETNRLIGLANQIMEQPVPRELDVMVSTGEQVTIALLSMALIKRGVPAVSYTGNQVRILTDSAHTKARILHIDDTHIRADLKAGRVVVVAGFQGVDGNGNITTLGRGGSDTTGVALAAALKADECQIYTDVDGVYTTDPRVVPQARRLDKITFEEMLEMASLGSKVLQIRAVEFAGKYNVPLRVLHSFQEGPGTLITIDDEEESMEQPIISGIAFNRDEAKLTIRGVPDTPGVAFKILGPISAANVEVDMIVQNVAHDNTTDFTFTVHRNDYLNALEILKQTAANIGAREAIGDTNIAKVSIVGVGMRSHAGVASRMFEALAKESINIQMISTSEIKVSVVIEEKYLELAVRALHTAFELDAPARQG”: “failed”. As for “MALKDYALEKEKVKKFLQEFYQDDELGKKQFKYGNQLVRLAHREQVALYVDLDDVAEDDPELVDSICENARRYAKLFADAVQELLPQYKEREVVNKDVLDVYIEHRLMMEQRSRDPGMVRSPQNQYPAELMRRFELYFQGPSSNKPRVIREVRADSVGKLVTVRGIVTRVSEVKPKMVVATYTCDQCGAETYQPIQSPTFMPLIMCPSQECQTNRSGGRLYLQTRGSRFIKFQEMKMQEHSDQVPVGNIPRSITVLVEGENTRIAQPGDHVSVTGIFLPILRTGFRQVVQGLLSETYLEAHRIVKMNKSEDDESGAGELTREELRQIAEEDFYEKLAASIAPEIYG”, the protein production entry is listed as “failed”. The value for “MALKLGVIGTGAIGQDHIRRCSKTLVGSQVVAVTDINLEQAANVVRDLGIGAEVYADGHALIAAPDVEAVLVCSWGPSHEEYVLAAIAAGKPVFCEKPLAVTAEGCRHIVEAEIASGRRLVQVGFMRPYDQGYRALKSVIDSGQIGEPLMLHCAHRNPRVGENYKTDMAITDTLIHELNVLRWLLNDDYVSVQVVFPRKSGKALAHMKDPQIVMLETARGTRIDVEVFVNCQYGYDIQCEVVGESGIARLPEPSQVQLRREAKLSNAILMDWKDRFIAAYDVELQDFIDGVKAGTIYGPSAWDGYAAAVAADACVLAQNNGAVVPITLAMRPAFYA” was “failed”; that for “MALKYPSGKEYRGNKPNAARRPAADYANRGMTLEDDLNATNEYYRERGIAVIHKKPTPVQIVRVDYPKRSAAVITEAYFRQASTTDYNGVYRGKYIDFEAKETKNKTAFPLKNFHAHQIRHMEQVVAHGGICFAILRFSLLNETYLLDASHLIAWWNKQEAGGRKSIPKQEIERHGHSIPLGYQPRIDYISVVDNVYFTR” was “not failed”. The same measure for “MALNNFLTFQLLLLLLRVSSESPWIVAGDVSRIPINFLELAKSPEVFDSMVRIRRKIHENPELGYEEFETSKFIRSELDLIGVKYRFPVAITGIIGYIGTGEPPFVALRADMDALPIQEAVEWEHKSKNPGKMHACGHDGHVAMLLGAAKILQQHRQHLQGTVVLIFQPAEEGLSGAKMMREEGALKNVEAIFGIHLSPRTPFGKAASLAGSFMAGAGAFEAVITGKGGHAAIPQHTIDPVVAASSIVLSLQHLVSRETDPSDSKVVTVTKVNGGNAFNVIPDSITIGGTLRAFTGFTQLQERIKEIITKQAAVHRCNASVNLAPNGNQPMPPTVNNMDLYKKFKKVVRDLLGQEAFVEAVPEMGSEDFSYFAETIPGHFSLLGMQDETQGYASSHSPHYRINEDVLPYGAAIHATMAVQYLKDKASKGSVSGFHDEL”: “not failed”. The same measure for “MALNVAPVRDTKWLTLEVCRQFQRGTCSRSDEECKFAHPPKSCQVENGRVIACFDSLKGRCSRENCKYLHPPTHLKTQLEINGRNNLIQQKTAAAMLAQQMQFMFPGTPLHPVPTFPVGPAIGTNTAISFAPYLAPVTPGVGLVPTEILPTTPVIVPGSPPVTVPGSTATQKLLRTDKLEVCREFQRGNCARGETDCRFAHPADSTMIDTSDNTVTVCMDYIKGRCMREKCKYFHPPAHLQAKIKAAQHQANQAAVAAQAAAAAATVMAFPPGALHPLPKRQALEKSNGTSAVFNPSVLHYQQALTSAQLQQHAAFIPTVPMMHSATSATVSAATTPATSVPFAATATANQIILK”: “not failed”; for “MALPASTPPRAKKRFAWIRTLRWYWWLLLFILLGYGLSHIMHWDDRGLLWLKERFESNEERSASIWLPDYHVEIDAKALPGMEKDEASDLSYNPISKTLFAVMGKNAFLVELTLKGDVLRKIPLVGWSNPEGVAVMNDGLIAITDERQHQLTIVKVTADTTTLNIADFPHYELGTSANKNKGFEGVAWDPRRQQLLLGEERPPALYTWKSDGSNVLKGDKQSLLSRALDMRNLSSLSIDPRTGHMLALSADSHMLLEVDEQGNQVSFMTLLGGMNGLKDTIPRAEGVALDEAGTLYMVSEPNLFYSFRKQ”: “failed”; for “MALPESESARTEQALGRLVGSLCVVTAQQGELSSAMLASWVSQATFSPPGLTVAVAKERAIESLLHKNSCFVLNILQEGNHLGLMKHFLKPFAPGGDRFADVATETAENGAPILTESLAYLECRVQQRLECGDHWVLYAVTDRGALLKDGVTAVHHRKSGDHYLEHHHHHH”: “failed”.

Regarding “MALPRPTSPHARGSNRTPAIMRLVLGACVPGLLTLTWLYGPGTLLNLAWASLVALACEAAMLALRKRPPGVFLKDGSALVTALLLAVALPPYAPWWLTLVATFFALVFGKHLYGGLGQNPFNPAMLGYVVALVSFPLEMTRWPSPDSALGLPDSLREFLGLATRPDAWAHATALDVLKTDRSLTVDELFAGNPAFGHLGSAGSEWVNLAFLLGGLFLLWRRLFTWHAPLGMLAGLFAMSLLFWNGSGSDSHGSPLFHLFSGATMLGAFFIVTDPVSGATSNRGRLVFGLGVGVLTYVIRAWGGYPDGVAFAVLLMNLAAPTIDYYTRPRTYGHRKAERGFKAGD”, the protein production result is “failed”. As for “MALREMIIDESDDIESYSDQSLCLDKAKELLALIKLPTGLLPLKDMTEVGYNKTKGFVWMRMRSKIEHTFREIGRRVLYDTEITAFVEDRRMRRLTGVKSKELMIWVPVNDIFIKRKILRRSPLLIPPACHEHLKFQHFNVRVDKLKEKRSNQTSLM”, the protein production result is “failed”.

As to “MALRKEDLILIPLVAGVMMGAIDSTIVVLALPTISDDLKAPLSLSIWIILAYLLVAAVSTTQFGRLGDMISRKTIFNSGMAIFTLGSFLCGVSSNIDFLIAFRFVQAAGGSMMQANSGSIIADNFPPNLRGRAYGYTSVGWNSGATLGIVLGGIITTLIGWRYIFYINVPVGIISLYFAIKYIIPGSKKNVKLDVPGVVTLTAALSSIAYAATDFTSHGLETTNETLLSIGFLLLVVFIFLERTNKNALLPFHLFQNRVFNFSIAASFLQSLGYLAVTFIVIMYLQGLRGLTPLDSSLLLVPGYVLGGFTGPIFGKLSDRIGARTPATLGMFLMMIAVLLYMTFNLKTPVYYVIPVSIISGLGSSMFFPANNSAVMASSPAGSYGAASGLLRTMANIGMLGSFVLAITVSTIAIPRYVAFEVFAGVGRLVGGLSASFLTGIHTALEVSFAIIAVGMLFSFVRGKENRSTSTPPRATETTK”, the protein production entry was “failed”. Consider “MALRNVPFRSEVLGWDPDSLADYFKKLNYKDCEKAVKKYHIDGARFLNLTENDIQKFPKLRVPILSKLSQEINKNEERRSIFTRKPQVPRFPEETESHEEDNGGWSSFEEDDYESPNDDQDGEDDGDYESPNEEEEAPVEDDADYEPPPSNDEEALQNSILPAKPFPNSNSMYIDRPPSGKTPQQPPVPPQRPMAALPPPPAGRNHSPLPPPQTNHEEPSRSRNHKTAKLPAPSIDRSTKPPLDRSLAPFDREPFTLGKKPPFSDKPSIPAGRSLGEHLPKIQKPPLPPTTERHERSSPLPGKKPPVPKHGWGPDRRENDEDDVHQRPLPQPALLPMSSNTFPSRSTKPSPMNPLPSSHMPGAFSESNSSFPQSASLPPYFSQGPSNRPPIRAEGRNFPLPLPNKPRPPSPAEEENSLNEEWYVSYITRPEAEAALRKINQDGTFLVRDSSKKTTTNPYVLMVLYKDKVYNIQIRYQKESQVYLLGTGLRGKEDFLSVSDIIDYFRKMPLLLIDGKNRGSRYQCTLTHAAGYP”, for which the protein production result is recorded as “not failed”.

These data come from a protein production outcome set (Wang et al. 2014).
